The values that follow come from article PMC4112721 (Plant Biotechnology Journal, 2013).

The assay deals with T1, HIV-1 envelope glycoprotein gp120 IIIB (HIV-1 group M subtype B, isolate IIIB …, UniProt P03375).
T1 construct: gp120 surface glycoprotein, cut product of the HIV-1 Env precursor, isolate IIIB; also called recombinant gp120 III; HIV gp120 IIIB; source: purified recombinant; NIH ARRRP
The experiment in a line: SPR; Protein A amine-coupled on a CM5 chip, VRC01 captured to about 100 RU, gp120 IIIB injected at 20 ug/mL; BIAcore X-100, 25 °C, HBS-EP+ (10 mM HEPES pH 7.4, 150 mM NaCl, 3 mM EDTA, 0.05% surfactant P-20); 1:1 Langmuir fit; triplicate. The settings on record: both partners purified. On the technique in general: In SPR one partner is held on a chip, and binding of the other changes the refractive index at the surface.

B1: VRC01 from transiently transformed Nicotiana benthamiana plants (antibody, V domains shown)
VH: QVQLVQSGGQMKKPGESMRISCRASGYEFIDCTLNWIRLAPGKRPEWMGWLKPRGGAVNYARPLQGRVTMTRDVYSDTAFLELRSLTVDDTAVYFCTRGKNCDYNWDFEHWGRGTPVIVSS
VL: EIVLTQSPGTLSLSPGETAIISCRTSQYGSLAWYQQRPGQAPRLVIYSGSTRAAGIPDRFSGSRWGPDYNLTISNLESGDFGVYYCQQYEFFGQGTKVQVD
notes: IgG1 kappa; plant-codon-optimized genes, both chains on one pTRAk.2 vector; also called VRC01 transient; transient plant-derived VRC01
The term Kd denotes a measure of binding affinity in units of concentration. A high value points to weaker binding. As to B1, binding was characterised by a dissociation constant (Kd) of 1.68 nM.

B2: VRC01 from stably transformed (transgenic) Nicotiana tabacum plants (antibody, V domains shown)
VH: B1 VH
VL: B1 VL
notes: as the heavy chain of m1; as the light chain of m1; IgG1 kappa; source: N. tabacum cv
Consider B2, for which the Kd stood at 1.39 nM.

B3: VRC01 from HEK cells (antibody, V domains shown)
VH: B1 VH
VL: B1 VL
notes: as the heavy chain of m1; as the light chain of m1; IgG1 kappa; also called VRC01 HEK; HEK-cells-derived VRC01; source: HEK cells, purified
B3 returned a Kd of 0.66 nM.
